Reference: patent publication US20220251184A1 (Regeneron, published 2022)

T1: human BMP6 (R&D Systems, Cat #507-BP) (human, UniProt P22004 375-513, limits assumed)
T1 construct: Bought protein (R&D Systems 507-BP or 507-BP/CF); also called hBMP6; hBMP-6
T1 sequence: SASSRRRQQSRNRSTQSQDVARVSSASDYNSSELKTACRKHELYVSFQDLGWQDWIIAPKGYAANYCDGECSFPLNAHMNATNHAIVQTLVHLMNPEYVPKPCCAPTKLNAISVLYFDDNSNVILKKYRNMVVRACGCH

T2: mouse BMP6 (R&D Systems, Cat #6325-BM) (mouse, UniProt P20722 372-510, limits assumed)
T2 sequence: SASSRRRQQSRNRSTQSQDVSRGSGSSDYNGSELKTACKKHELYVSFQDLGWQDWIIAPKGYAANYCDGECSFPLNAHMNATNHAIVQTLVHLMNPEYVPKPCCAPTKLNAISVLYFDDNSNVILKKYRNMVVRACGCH

T3: Human BMP10 (human, UniProt O95393 317-424)
T3 sequence (looked up): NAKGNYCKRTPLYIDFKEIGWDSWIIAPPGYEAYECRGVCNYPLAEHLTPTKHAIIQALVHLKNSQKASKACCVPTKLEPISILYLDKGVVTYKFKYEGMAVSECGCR

T4: Human BMP14/GDF5 (human, UniProt P43026 382-501)
T4 sequence (looked up): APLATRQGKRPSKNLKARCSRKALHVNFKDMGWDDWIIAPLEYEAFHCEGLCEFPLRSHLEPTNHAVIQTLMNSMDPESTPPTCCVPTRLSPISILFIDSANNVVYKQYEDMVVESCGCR

T5: Mouse GDF6 (mouse, UniProt P43028 335-454, limits assumed)
T5 sequence (looked up): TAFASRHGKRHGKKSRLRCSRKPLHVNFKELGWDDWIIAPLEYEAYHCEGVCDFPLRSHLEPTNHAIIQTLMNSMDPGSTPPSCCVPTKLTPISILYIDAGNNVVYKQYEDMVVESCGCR


Experiments:
[1] = biological target: T1, human BMP6 (R&D Systems, Cat #507-BP); experiment: SPR (MASS-1), mAb captured on anti-human Fc, hBMP6 in solution, 25 C
Procedure: (§1) Equilibrium dissociation constants (KD values) for human and mouse BMP6 binding to purified anti-BMP6 monoclonal antibodies of this invention were determined using a real-time surface plasmon resonance (SPR) biosensor instrument, MASS-1. All binding studies were performed in 10 mM HEPES, 150 mM NaCl, 3 mM EDTA, 1 μg/mL Heparin, and 0.05% v/v Surfactant Tween-20, pH 7.4 (HBS-EHT) running buffer at 25° C. and 37° C. The HCA sensor surface was first derivatized by amine coupling the monoclonal mouse anti-human Fc antibody (GE, #BR100839) and anti-BMP6 monoclonal antibodies were individually captured. Different concentrations of human BMP6 reagents (hBMP6; R&D Systems, Cat #507-BP; 60 nM-0.94 nM; 4-fold serial dilution) or mouse BMP6 (mBMP6; R&D Systems, Cat #6325-BM; 60 nM and 15 nM) prepared in HBS-EHT running buffer were injected over the captured anti-BMP6 monoclonal antibody for 4 minutes at a flow rate of 30 μL/minute, while the dissociation of BMP6 reagent bound to captured anti-BMP6 monoclonal antibody was monitored for 10 minutes in HBS-EHT running buffer. Kinetic association (kₐ) and dissociation (kd) rate constants were determined by fitting the real-time binding sensorgrams to a 1:1 binding model with mass transport limitation using Scrubber 2.0c software. Binding dissociation equilibrium constant (KD) and dissociative half-life (t½) for different anti-BMP6 monoclonal antibodies were calculated from the kinetic rate constants as: […]

[2] = biological target: T2, mouse BMP6 (R&D Systems, Cat #6325-BM); experiment: cell-based or functional assay
[3] = biological target: T1, human BMP6 (R&D Systems, Cat #507-BP); experiment: cell-based or functional assay
[4] = biological target: T1, human BMP6 (R&D Systems, Cat #507-BP); experiment: SPR (MASS-1), mAb captured on anti-human Fc, hBMP6 in solution, 37 C; no dissociation observed, kd manually fixed at 1.00E-05; 37 C; no dissociation observed, kd fixed at 1.00E-05
Procedure: as §1, with “software.” for “software. Binding dissociation equilibrium constant (KD) and dissociative half-life (t½) for different anti-BMP6 monoclonal antibodies were calculated from the kinetic rate constants as:”

Human BMP10 = biological target: T3, Human BMP10; experiment: BLI (Octet HTX), mAb captured on Protein A sensor, 100 nM ligand, 25 C
Procedure: (§2) Binding cross-reactivity of anti-BMP6 monoclonal antibodies to BMP6 family members, (Human: BMP6, BMP5, BMP7, BMP8A, BMP9, BMP10, BMP12, BMP14, BMP3b, Activin A, and GDF3 and mouse: BMP6 and GDF6) was determined using a real-time Bio-Layer Interferometry (BLI) biosensor using Octet HTX instrument. All binding studies were performed in 10 mM HEPES, 150 mM NaCl, 3 mM EDTA, 1 mg/mL BSA, 50 μg/mL Heparin, and 0.05% v/v Surfactant Tween-20, pH 7.4 (HBS-EBHT) buffer at 25° C. with the plate shaking at a speed of 1000 rpm. To assess binding cross-reactivity, Protein A coated Octet biosensor (Pall ForteBio Corp., #18-5010) was first dipped in wells containing […] of anti-BMP6 monoclonal antibodies for 4 minutes followed by submerging in wells containing 100 nM of different BMP6 family members for 4 minutes. The biosensors were washed in HBS-EBHT buffer in between every step of the experiment. At the end of each cycle, the Protein A biosensor was regenerated using three alternate 5 second dips in 10 mM Glycine pH 2.0 and 10 second dip HBS-EBHT buffer. The real-time binding response was monitored during the course of the experiment and the binding response at the end of every step was recorded and tabulated as shown in Tables 8A and 8B.

Human BMP14/GDF5 = biological target: T4, Human BMP14/GDF5; experiment: as above
Procedure: as §2

Mouse GDF6 = biological target: T5, Mouse GDF6; experiment: as above
Procedure: as §2

Binder | koff [1] [s⁻¹] | kon [1] [M⁻¹ s⁻¹] | t1/2 [1] [h] | IC50 [M], inhibition of 5 nM mBMP6 activation of W-20-17/BRE-luc cells (luciferase) [2] [M] | IC50 [M], inhibition of 1 nM hBMP6 activation of Hep3B/BRE-luc cells (luciferase) [3] [M] | koff [4] [s⁻¹] | binding response (Human BMP10) [nm] | binding response (Human BMP14/GDF5) [nm] | binding response (Mouse GDF6) [nm] | Kd [1] [nM]
H4H17871P (antibody, V domains shown, Fully human antibody; also called anti-BMP6 monoclonal antibody; BMP6 antibody of the invention) VH: EVQLVESGGGLVQPGGSLRLSCAASGFTFNNYAMSWVRQAPGKGLEWVSAISGSGDSTYYADSVKGRFTISRDNSKNTLYLQMNSLRAEDTAVYYCAKRSRSSPFDPWGQGTLVTVSS VL: not shown | 4.14e-05 | 283000 | 4.65 | 1.1e-08 | 1.6e-09 | ≤ 1e-05 | 0.01 | -0.01 | -0.02 | 
H4H17855P (antibody, V domains shown, Fully human antibody; also called anti-BMP6 monoclonal antibody; BMP6 antibody of the invention) VH: EVQLVESGGGLVQPGGSLRLSCAASGFTFSSYAMSWVRQAPGKGLEWVSAISGSGGRTYYTDSVKGRFTMSRDNSKNTLYLQMNSLRAEDTAVYYCAKRPYNSPFDPWGQGTLVTVSS VL: EIVLTQSPGTLSLSPGEGATLSCRASQSVSSSYLAWYQQKPGQAPRLLIYGASSRATGIPDRFSGSGSGTDFTLTISRLEPEDFVVYYCQHFGGTPFTFGGGTKVEIK | 6.3e-05 | 178000 | 3.05 | 1.9e-09 | 2.5e-10 |  | -0.01 | -0.02 | -0.02 | 0.355
